Source: patent US20220267447A1

Experiments:
[1] = molecular target: JAK1 kinase domain (JH1) (Homo sapiens (Human)) (UniProt P23458); experiment: cell-based or functional assay
JAK2 kinase domain (JH1) = experiment: cell-based or functional assay
JAK3 kinase domain (JH1) = experiment: cell-based or functional assay
TYK2 kinase domain (JH1) = experiment: cell-based or functional assay
[2] = molecular target: JAK1-Y1034 phosphopeptide with an alanine substitution at the +3 position (Homo sapiens); experiment: ITC
[3] = molecular target: JAK1 activation loop phosphopeptide (Tyr1034 phosphorylated) (Homo sapiens); experiment: ITC

Chain of JAK1 kinase domain (JH1) (Homo sapiens (Human)) (P23458 854-1154 limits assumed): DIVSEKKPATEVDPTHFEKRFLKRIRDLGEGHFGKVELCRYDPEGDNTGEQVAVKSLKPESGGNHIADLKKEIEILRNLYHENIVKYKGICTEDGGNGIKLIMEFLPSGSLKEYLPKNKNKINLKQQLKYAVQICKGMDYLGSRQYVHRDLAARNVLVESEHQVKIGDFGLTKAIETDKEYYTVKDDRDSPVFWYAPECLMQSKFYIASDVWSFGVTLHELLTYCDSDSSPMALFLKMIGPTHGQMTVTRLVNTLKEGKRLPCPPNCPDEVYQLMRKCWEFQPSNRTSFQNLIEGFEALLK
Chain of human CIS lacking the N-terminal 34 residues (AN34), trimeric complex with elongin B and elongin C (Q9NSE2 35-258): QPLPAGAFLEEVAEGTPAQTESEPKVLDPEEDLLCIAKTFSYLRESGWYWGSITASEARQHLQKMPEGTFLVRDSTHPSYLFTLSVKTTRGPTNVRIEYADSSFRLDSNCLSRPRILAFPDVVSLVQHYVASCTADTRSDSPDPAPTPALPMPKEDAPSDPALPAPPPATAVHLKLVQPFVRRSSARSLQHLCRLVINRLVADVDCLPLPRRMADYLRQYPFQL
Chain of human CIS lacking the N-terminal 34 residues (AN34), trimeric complex with elongin B and elongin C (Q15370 whole entry): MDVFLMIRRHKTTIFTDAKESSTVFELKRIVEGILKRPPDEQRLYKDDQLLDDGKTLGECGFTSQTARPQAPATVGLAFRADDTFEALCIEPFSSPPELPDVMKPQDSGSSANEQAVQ
Chain of human CIS lacking the N-terminal 34 residues (AN34), trimeric complex with elongin B and elongin C (Q15369 17-112): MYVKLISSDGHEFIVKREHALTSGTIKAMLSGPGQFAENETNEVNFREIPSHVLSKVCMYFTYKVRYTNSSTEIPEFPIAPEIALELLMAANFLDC

Substance: hCIS-SH2-BC: recombinant trimeric complex of a human GST-CIS construct (hCIS-SH2) with Elongins B and C (from UniProt Q9NSE2 66-258; Q15370 1-118; Q15369 17-112)
- IC50, inhibition of JAK1 phosphorylation of a substrate peptide (in vitro kinase assay) [1]: 120 nM
- efficiency of JAK1 JH1 kinase inhibition relative to SOCS1 [1]: 100 fold
- kinase inhibition relative to inhibition of JAK1 (in vitro kinase assay with JH1 domains) (JAK2 kinase domain (JH1)): 20 fold
- kinase inhibition relative to inhibition of JAK1 (in vitro kinase assay with JH1 domains) (JAK3 kinase domain (JH1)): 20 fold
- kinase inhibition relative to inhibition of JAK1 (in vitro kinase assay with JH1 domains) (TYK2 kinase domain (JH1)): 20 fold

Substance: human CIS lacking both the N-terminal region (residues 1-66) and the PEST motif (ANT/APEST), trimeric complex with elongin B and elongin C (from UniProt Q9NSE2 67-258; Q15370 1-118; Q15369 17-112)
- fold reduction of binding against the wild-type JAK1-Y1034 phosphopeptide [2]: 4 fold
- IC50, inhibition of the JAK1 kinase domain (JH1) in an in vitro kinase reaction [1]: 600 nM

Substance: human CIS lacking the N-terminal 34 residues (AN34), trimeric complex with elongin B and elongin C (from UniProt Q9NSE2 35-258; Q15370 1-118; Q15369 17-112)
- Kd [3]: 2200 to 10000 nM
